Test results reported in US20160067347A1, “APJ RECEPTOR AGONISTS AND USES THEREOF” (AMGEN INC., priority 2012, published 2016).
One block for each compound: values may come before it. *1 amine or outer side, *2 acyl side, *3 side chain or, on linkers, in order; H or OH if unused. Where a SMILES comes first, the peptide text is derived from it. Primed or numbered codes have the meaning given here. Where no end group is shown, it is not given here. [ ]: non-standard residue; d: D form. Atz = (S)-2-amino-3-(1H-1,2,3-triazol-4-yl)propanoyl residue, substituent (PEG) on triazole N1, O=C([C@H](Cc1cn([*:3])nn1)N[*:1])[*:2]; Oic = O=C(O)[C@@H]1C[C@@H]2CCCC[C@@H]2N1; Phe(4-Cl) = N[C@@H](Cc1ccc(Cl)cc1)C(=O)O; 1Nal = N[C@@H](Cc1cccc2ccccc12)C(=O)O; hArg = N=C(N)NCCCC[C@H](N)C(=O)O; Cha = N[C@@H](CC1CCCCC1)C(=O)O; 40K‑mPEG = 40 kDa methoxy-PEG; pGlu = O=C1CC[C@@H](C(=O)O)N1; PEG11′ = not defined here; PEG23′ = not defined here; PEG35′ = not defined here; PEG47′ = not defined here; Nle = CCCC[C@H](N)C(=O)O

Assays:
[1] = in vitro; conditions: rat
Method: Apelin peptides were spiked into freshly prepared mouse, rat, dog and human EDTA plasma to a final concentration of 5 μM. The plasma samples were then incubated at 37° C. over a period of 4 hr. Up to 8 time points were sampled to facilitate estimation of in vitro half life in plasma matrices. In a typical experiment, aliquot of 100 μL of plasma sample was taken from the incubation vial, followed by addition of 300 μL of MeOH containing internal standard. The quenched sample was centrifuged at 5500 g for 15 min after 15 min vortex in room temperature. The supernatant was then analyzed by high resolution LC-MS.

[2] = biological target: T1, rat APJ receptor (Rattus norvegicus, UniProt Q9JHG3); assay: [35S]GTPγS assay, membranes from stable cell lines, rat APJ; type: biochemical; conditions: for in vitro potency relative to endogenous pyr apelin 13 (SEQ ID NO: 128) / in vitro potency, mono vs bis vs tetrakis 20 kDa PEG peptides: FIG. 11, in vitro rat GTPγS assay; for potency relative to monopeptide (SEQ ID NO: 494): FIG. 13, PEGylated bis-peptides on low molecular weight monodispersed PEG
T1 construct: expressed in transfected cells; CHO is named only for the cAMP assay
T1 sequence (Q9JHG3 1-377): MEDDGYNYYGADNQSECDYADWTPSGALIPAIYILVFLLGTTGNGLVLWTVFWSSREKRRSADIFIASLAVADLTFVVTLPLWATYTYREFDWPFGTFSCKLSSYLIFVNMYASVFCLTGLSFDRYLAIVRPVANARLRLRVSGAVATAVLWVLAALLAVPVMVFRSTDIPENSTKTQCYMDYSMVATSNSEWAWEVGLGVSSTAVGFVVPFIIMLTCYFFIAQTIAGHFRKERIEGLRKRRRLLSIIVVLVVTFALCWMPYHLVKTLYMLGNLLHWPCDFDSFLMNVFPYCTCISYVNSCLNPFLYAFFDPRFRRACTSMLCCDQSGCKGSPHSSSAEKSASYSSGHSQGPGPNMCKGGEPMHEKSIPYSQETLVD
Method: To assay for GTP, membranes were prepared from stable cell lines and used to determine the efficacy/potency of the modified peptides. The optimal experimental conditions for the concentrations of GDP, MgCl2 and NaCl in the assay buffer were initially determined. The membranes were incubated with modified peptides in the assay buffer. The reaction was initiated by addition of [^35S] GTPγS in the absence or presence of peptides and incubated at room temperature for 90 min. […] Bound [^35S] GTPγS was separated from free radiolabel by filtration. The filter bound radioactivity was determined by liquid scintillation counting.
A series of PEGylated peptides were prepared and screened in vitro to explore the effects of PEG size and peptide valency on potency and efficacy in the GTPγS assay. In the assay 20 kDA and 40 kDA PEG were compared (FIG. 10).
Additionally mono- and multivalent bis, and tetrakis-peptide conjugated PEGS were prepared to explore peptide valency. […]

[3] = FIGURE 4B
From the text: Table printed on a drawing sheet, FIGURE 4B
Section band inside the table: Peptides with thioether linker and 20 kDa PEG modification
The patent's description of the figure: FIGS. 4A-B. In vitro stability of APJ agonists in plasma.
First reader's note: Rows 3 and 9 of the grid are section headings spanning all columns (linker type of the 20 kDa PEGylated peptides).

Compound: CCCC[C@H](NC(=O)[C@@H]1CCCN1C(=O)CNC(=O)[C@H](CCCCN)NC(=O)[C@H](Cc1cn(CCOCCOCCOCCOCCOCCOCCOCCOCCOCCOCCN)nn1)NC(=O)[C@H](Cc1ccccc1)NC(=O)[C@H](CC(C)C)N(C)C(=O)[C@H](CCCCNC(=N)N)NC(=O)[C@@H]1CCCN1C(=O)[C@H](CCCNC(=N)N)NC(=O)[C@@H]1CCC(=O)N1)C(=O)N[C@H](Cc1ccccc1)C(=O)O [compound 29]
- remaining at 1 h, 5 μM ([1]; plasma): 50%

- remaining at 1 h, 5 μM ([1]; rat EDTA plasma): 63%
Compound: CCCC[C@H](NC(=O)[C@@H]1CCCN1C(=O)CNC(=O)[C@H](CCCCN)NC(=O)[C@H](Cc1c[nH]cn1)NC(=O)[C@H](CO)NC(=O)[C@H](CC1CCCCC1)NC(=O)[C@H](CCCCNC(=N)N)NC(=O)[C@@H]1CCCN1C(=O)[C@H](CCCNC(=N)N)NC(=O)[C@@H]1CCC(=O)N1)C(=O)N[C@@H](Cc1cccc2ccccc12)C(=O)O [compound 31] ([pGlu]RP[hArg][Cha]SHKGP[Nle][1Nal]-OH; C-terminus assumed)

- remaining at 1 h, 5 μM ([1]; rat EDTA plasma): 64.6%
Compound: CCCC[C@H](NC(=O)[C@@H]1CCCN1C(=O)CNC(=O)[C@H](CCCCN)NC(=O)[C@H](Cc1c[nH]cn1)NC(=O)[C@H](CO)NC(=O)[C@H](CC1CCCCC1)NC(=O)[C@H](CCCCNC(=N)N)NC(=O)[C@@H]1CCCN1C(=O)[C@H](CCCNC(=N)N)NC(=O)[C@@H]1CCC(=O)N1)C(=O)N[C@@H](Cc1ccc(Cl)cc1)C(=O)O [compound 32] ([pGlu]RP[hArg][Cha]SHKGP[Nle][Phe(4-Cl)]-OH; C-terminus assumed)

Compound: CCCC[C@H](NC(=O)[C@@H]1C[C@@H]2CCCC[C@@H]2N1C(=O)CNC(=O)[C@H](CCCCN)NC(=O)[C@H](Cc1cn(CCOCCOCCOCCOCCOCCOCCOCCOCCOCCOCCN)nn1)NC(=O)[C@H](Cc1ccccc1)NC(=O)[C@H](CC1CCCCC1)NC(=O)[C@H](CCCCNC(=N)N)NC(=O)[C@@H]1CCCN1C(=O)[C@H](CCCNC(=N)N)NC(=O)[C@@H]1CCC(=O)N1)C(=O)N[C@H](Cc1ccccc1)C(=O)O [compound 33]
- remaining at 1 h, 5 μM ([1]; plasma): 66%

Compound: CCCC[C@H](NC(=O)[C@@H]1C[C@@H]2CCCC[C@@H]2N1C(=O)CNC(=O)[C@H](CCCCN)NC(=O)[C@H](Cc1c[nH]cn1)NC(=O)[C@H](Cc1cn(CCOCCOCCOCCOCCOCCOCCOCCOCCOCCOCCN)nn1)NC(=O)[C@H](CC1CCCCC1)NC(=O)[C@H](CCCCNC(=N)N)NC(=O)[C@@H]1CCCN1C(=O)[C@H](CCCNC(=N)N)NC(=O)[C@@H]1CCC(=O)N1)C(=O)N1CCC[C@H]1C(=O)N[C@@H](Cc1ccc(Cl)cc1)C(=O)O [compound 34]
- remaining at 1 h, 5 μM ([1]; plasma): 72%

Compound: SEQ ID NO: 129: 20 kDa PEG-mono(Atz-KFRRQRP[hArg][Cha]SHKG[Oic][Nle]P[4-Cl—F]) (XKFRRQRPRLSHKGPMPF; not fully specified; 20 kDa PEG, Atz linker; non-natural residues; source: /note="N-term may or may not be modified by conjugation linker, an acyl group, an aryl group, an alkyl group, NPeg11, a PEG derivative or other serum half-life prolonging group"; MOD_RES (1)..(1): Atz)
- in vitro potency relative to endogenous pyr apelin 13 (SEQ ID NO: 128) [2]: significantly more potent
- in vitro potency, mono vs bis vs tetrakis 20 kDa PEG peptides [2]: approximately equipotent

Compound: SEQ ID NO: 130: 20 kDa PEG-bis(Atz-KFRRQRP[hArg][Cha]SHKG[Oic][Nle]P[4-Cl—F]) (KFRRQRP[hArg][Cha]SHKG[Oic][Nle]P[Phe(4-Cl)]; not fully specified (N-terminus); also: 20 kDa PEG carries two peptide copies)
- in vitro potency relative to endogenous pyr apelin 13 (SEQ ID NO: 128) [2]: significantly more potent
- in vitro potency, mono vs bis vs tetrakis 20 kDa PEG peptides [2]: approximately equipotent

Compound: SEQ ID NO: 131: 20 kDa PEG-tetrakis(Atz-KFRRQRP[hArg][Cha]SHKG[Oic][Nle]P[4-Cl—F]) (KFRRQRP[hArg][Cha]SHKG[Oic][Nle]P[Phe(4-Cl)]; not fully specified (N-terminus); also: 20 kDa PEG carries four peptide copies)
- in vitro potency relative to endogenous pyr apelin 13 (SEQ ID NO: 128) [2]: significantly more potent
- in vitro potency, mono vs bis vs tetrakis 20 kDa PEG peptides [2]: approximately equipotent

- potency relative to monopeptide (SEQ ID NO: 494) [2]: reduced potency
Compound: SEQ ID NO: 133: PEGylated bis-peptide, the shortest PEG conjugate (~0.6 kDa PEG) ([PEG11′][Atz]KFRRQRP[hArg][Cha]SHKG[Oic][Nle]P[Phe(4-Cl)]; not fully specified (residue 1); numbers in words are those of the source; also: bis-peptide: two peptide chains joined through PEG11 on Atz)

- potency relative to monopeptide (SEQ ID NO: 494) [2]: increased potency
Compound: SEQ ID NO: 134: PEGylated bis-peptide, 1 kDa PEG conjugate ([PEG23′][Atz]KFRRQRP[hArg][Cha]SHKG[Oic][Nle]P[Phe(4-Cl)]; not fully specified (residue 1); numbers in words are those of the source; also: bis-peptide: two peptide chains joined through PEG23 on Atz)

- potency relative to monopeptide (SEQ ID NO: 494) [2]: increased potency
Compound: SEQ ID NO: 135: PEGylated bis-peptide, 1.7 kDa PEG conjugate ([PEG35′][Atz]KFRRQRP[hArg][Cha]SHKG[Oic][Nle]P[Phe(4-Cl)]; not fully specified (residue 1); numbers in words are those of the source; also: bis-peptide: two peptide chains joined through PEG35 on Atz)

- potency relative to monopeptide (SEQ ID NO: 494) [2]: increased potency
Compound: SEQ ID NO: 136: PEGylated bis-peptide, 2.2 kDa PEG conjugate ([PEG47′][Atz]KFRRQRP[hArg][Cha]SHKG[Oic][Nle]P[Phe(4-Cl)]; not fully specified (residue 1); numbers in words are those of the source; also: bis-peptide: two peptide chains joined through PEG47 on Atz)

- Emax relative to the 20 kDa PEGylated peptide ([2]; FIG. 10): 84 % of 20 kDa
Compound: SEQ ID NO: 474: 40 Kda PEGylated peptide compared with the 20 kDa PEGylated peptide SEQ ID NO: 24 ({40K‑mPEG-Thiopropionyl}-KFRRQRP[hArg][Cha]SHKG[Oic][Nle]P[Phe(4-Cl)]-OH)

Compound: Thiopropionyl(20K-mPEG)- KFRRQRP[hArg][Cha]SHKG[Oic][Nle]P[4-Cl-F] [compound 44]
- in vitro plasma stability (t1/2, min) | DOG [3]: 172 min
- in vitro plasma stability (t1/2, min) | HUMAN [3]: 142 min
- in vitro plasma stability (t1/2, min) | MOUSE [3]: 37 min
- in vitro plasma stability (t1/2, min) | RAT [3]: 180 min

Compound: Thiopropionyl(20K-mPEG)- QRP[hArg][Cha]SHKG[Oic][Nle]P[4-Cl-F] [compound 48]
- in vitro plasma stability (t1/2, min) | DOG [3]: 219 min
- in vitro plasma stability (t1/2, min) | HUMAN [3]: 307 min
- in vitro plasma stability (t1/2, min) | MOUSE [3]: 53 min
- in vitro plasma stability (t1/2, min) | RAT [3]: 303 min

Compound: Thiopropionyl(20K-mPEG)- RQRP[hArg][Cha]SHKG[Oic][Nle]P[4-Cl-F] [compound 47]
- in vitro plasma stability (t1/2, min) | DOG [3]: 279 min
- in vitro plasma stability (t1/2, min) | HUMAN [3]: 300 min
- in vitro plasma stability (t1/2, min) | MOUSE [3]: 41 min
